Test results as given in patent publication US20140044644A1 (UNIVERSITY OF ZURICH, published 2014).

Columns and labels:
[1] = molecular target: ankB in mouse brain homogenate (mouse, UniProt Q8C8R3 1-3898, limits assumed); test: co-immunoprecipitation (ankG immunoprecipitate) from mouse brains, Western blot
Source text: (§1) FIG. 6: AnkG interacts directly with APP in the brain [0020] (a) AnkG and APP immunoprecipitates from human frontal cortex were immunoblotted with specific antibodies against ankG, APP and ankB. Immunoprecipitates with non-immune IgG served as a negative control. Note that APP co-immunoprecipitated with ankG and vice versa. Human brain homogenate (C) was used as positive control. (b) AnkG immunoprecipitates were obtained from arcAbeta (TG), non-transgenic (NTG) littermates and APP deficient (−/−) mouse brains. Note that APP, but not ankB, co-immunoprecipitated with ankG. Mouse brain homogenate (C) was used as positive control. (c) Primary rat hippocampal cultures were stained with antibodies against the C-terminal portion of APP (green) and with antibodies against ankG (red). Note the presence of both ankG and APP in the AIS. Scale bar=10 μm (upper panels) and Scale bar=30 μm (lower panels). […] AnkG binding to BSA-coated wells (2 mg/ml) served as negative control. Mean values (OD₄₅₀)±SEM are shown (n=6). (e) AnkG and APP immunoprecipitates from human AD hippocampus were immunoblotted with specific antibodies against APP and Caspr and L1. Immunoprecipitates with non-immune IgG served as a negative control. As already shown in (a) APP co-immunoprecipitated with ankG. Note the absence of Caspr and L1 from the immunoprecipitates. AD hippocampus homogenate (+) was used as positive control. […]

[2] = molecular target: T1, ankG in human brain homogenate (human, UniProt Q12955 1-4377, limits assumed); test: co-immunoprecipitation (ankG immunoprecipitate) from human AD hippocampus, Western blot
T1 construct: Endogenous protein in co-immunoprecipitation; also called ankG (human frontal cortex, hippocampus, AD hippocampus)
Source text: as §1

T1 sequence (Q12955 whole entry): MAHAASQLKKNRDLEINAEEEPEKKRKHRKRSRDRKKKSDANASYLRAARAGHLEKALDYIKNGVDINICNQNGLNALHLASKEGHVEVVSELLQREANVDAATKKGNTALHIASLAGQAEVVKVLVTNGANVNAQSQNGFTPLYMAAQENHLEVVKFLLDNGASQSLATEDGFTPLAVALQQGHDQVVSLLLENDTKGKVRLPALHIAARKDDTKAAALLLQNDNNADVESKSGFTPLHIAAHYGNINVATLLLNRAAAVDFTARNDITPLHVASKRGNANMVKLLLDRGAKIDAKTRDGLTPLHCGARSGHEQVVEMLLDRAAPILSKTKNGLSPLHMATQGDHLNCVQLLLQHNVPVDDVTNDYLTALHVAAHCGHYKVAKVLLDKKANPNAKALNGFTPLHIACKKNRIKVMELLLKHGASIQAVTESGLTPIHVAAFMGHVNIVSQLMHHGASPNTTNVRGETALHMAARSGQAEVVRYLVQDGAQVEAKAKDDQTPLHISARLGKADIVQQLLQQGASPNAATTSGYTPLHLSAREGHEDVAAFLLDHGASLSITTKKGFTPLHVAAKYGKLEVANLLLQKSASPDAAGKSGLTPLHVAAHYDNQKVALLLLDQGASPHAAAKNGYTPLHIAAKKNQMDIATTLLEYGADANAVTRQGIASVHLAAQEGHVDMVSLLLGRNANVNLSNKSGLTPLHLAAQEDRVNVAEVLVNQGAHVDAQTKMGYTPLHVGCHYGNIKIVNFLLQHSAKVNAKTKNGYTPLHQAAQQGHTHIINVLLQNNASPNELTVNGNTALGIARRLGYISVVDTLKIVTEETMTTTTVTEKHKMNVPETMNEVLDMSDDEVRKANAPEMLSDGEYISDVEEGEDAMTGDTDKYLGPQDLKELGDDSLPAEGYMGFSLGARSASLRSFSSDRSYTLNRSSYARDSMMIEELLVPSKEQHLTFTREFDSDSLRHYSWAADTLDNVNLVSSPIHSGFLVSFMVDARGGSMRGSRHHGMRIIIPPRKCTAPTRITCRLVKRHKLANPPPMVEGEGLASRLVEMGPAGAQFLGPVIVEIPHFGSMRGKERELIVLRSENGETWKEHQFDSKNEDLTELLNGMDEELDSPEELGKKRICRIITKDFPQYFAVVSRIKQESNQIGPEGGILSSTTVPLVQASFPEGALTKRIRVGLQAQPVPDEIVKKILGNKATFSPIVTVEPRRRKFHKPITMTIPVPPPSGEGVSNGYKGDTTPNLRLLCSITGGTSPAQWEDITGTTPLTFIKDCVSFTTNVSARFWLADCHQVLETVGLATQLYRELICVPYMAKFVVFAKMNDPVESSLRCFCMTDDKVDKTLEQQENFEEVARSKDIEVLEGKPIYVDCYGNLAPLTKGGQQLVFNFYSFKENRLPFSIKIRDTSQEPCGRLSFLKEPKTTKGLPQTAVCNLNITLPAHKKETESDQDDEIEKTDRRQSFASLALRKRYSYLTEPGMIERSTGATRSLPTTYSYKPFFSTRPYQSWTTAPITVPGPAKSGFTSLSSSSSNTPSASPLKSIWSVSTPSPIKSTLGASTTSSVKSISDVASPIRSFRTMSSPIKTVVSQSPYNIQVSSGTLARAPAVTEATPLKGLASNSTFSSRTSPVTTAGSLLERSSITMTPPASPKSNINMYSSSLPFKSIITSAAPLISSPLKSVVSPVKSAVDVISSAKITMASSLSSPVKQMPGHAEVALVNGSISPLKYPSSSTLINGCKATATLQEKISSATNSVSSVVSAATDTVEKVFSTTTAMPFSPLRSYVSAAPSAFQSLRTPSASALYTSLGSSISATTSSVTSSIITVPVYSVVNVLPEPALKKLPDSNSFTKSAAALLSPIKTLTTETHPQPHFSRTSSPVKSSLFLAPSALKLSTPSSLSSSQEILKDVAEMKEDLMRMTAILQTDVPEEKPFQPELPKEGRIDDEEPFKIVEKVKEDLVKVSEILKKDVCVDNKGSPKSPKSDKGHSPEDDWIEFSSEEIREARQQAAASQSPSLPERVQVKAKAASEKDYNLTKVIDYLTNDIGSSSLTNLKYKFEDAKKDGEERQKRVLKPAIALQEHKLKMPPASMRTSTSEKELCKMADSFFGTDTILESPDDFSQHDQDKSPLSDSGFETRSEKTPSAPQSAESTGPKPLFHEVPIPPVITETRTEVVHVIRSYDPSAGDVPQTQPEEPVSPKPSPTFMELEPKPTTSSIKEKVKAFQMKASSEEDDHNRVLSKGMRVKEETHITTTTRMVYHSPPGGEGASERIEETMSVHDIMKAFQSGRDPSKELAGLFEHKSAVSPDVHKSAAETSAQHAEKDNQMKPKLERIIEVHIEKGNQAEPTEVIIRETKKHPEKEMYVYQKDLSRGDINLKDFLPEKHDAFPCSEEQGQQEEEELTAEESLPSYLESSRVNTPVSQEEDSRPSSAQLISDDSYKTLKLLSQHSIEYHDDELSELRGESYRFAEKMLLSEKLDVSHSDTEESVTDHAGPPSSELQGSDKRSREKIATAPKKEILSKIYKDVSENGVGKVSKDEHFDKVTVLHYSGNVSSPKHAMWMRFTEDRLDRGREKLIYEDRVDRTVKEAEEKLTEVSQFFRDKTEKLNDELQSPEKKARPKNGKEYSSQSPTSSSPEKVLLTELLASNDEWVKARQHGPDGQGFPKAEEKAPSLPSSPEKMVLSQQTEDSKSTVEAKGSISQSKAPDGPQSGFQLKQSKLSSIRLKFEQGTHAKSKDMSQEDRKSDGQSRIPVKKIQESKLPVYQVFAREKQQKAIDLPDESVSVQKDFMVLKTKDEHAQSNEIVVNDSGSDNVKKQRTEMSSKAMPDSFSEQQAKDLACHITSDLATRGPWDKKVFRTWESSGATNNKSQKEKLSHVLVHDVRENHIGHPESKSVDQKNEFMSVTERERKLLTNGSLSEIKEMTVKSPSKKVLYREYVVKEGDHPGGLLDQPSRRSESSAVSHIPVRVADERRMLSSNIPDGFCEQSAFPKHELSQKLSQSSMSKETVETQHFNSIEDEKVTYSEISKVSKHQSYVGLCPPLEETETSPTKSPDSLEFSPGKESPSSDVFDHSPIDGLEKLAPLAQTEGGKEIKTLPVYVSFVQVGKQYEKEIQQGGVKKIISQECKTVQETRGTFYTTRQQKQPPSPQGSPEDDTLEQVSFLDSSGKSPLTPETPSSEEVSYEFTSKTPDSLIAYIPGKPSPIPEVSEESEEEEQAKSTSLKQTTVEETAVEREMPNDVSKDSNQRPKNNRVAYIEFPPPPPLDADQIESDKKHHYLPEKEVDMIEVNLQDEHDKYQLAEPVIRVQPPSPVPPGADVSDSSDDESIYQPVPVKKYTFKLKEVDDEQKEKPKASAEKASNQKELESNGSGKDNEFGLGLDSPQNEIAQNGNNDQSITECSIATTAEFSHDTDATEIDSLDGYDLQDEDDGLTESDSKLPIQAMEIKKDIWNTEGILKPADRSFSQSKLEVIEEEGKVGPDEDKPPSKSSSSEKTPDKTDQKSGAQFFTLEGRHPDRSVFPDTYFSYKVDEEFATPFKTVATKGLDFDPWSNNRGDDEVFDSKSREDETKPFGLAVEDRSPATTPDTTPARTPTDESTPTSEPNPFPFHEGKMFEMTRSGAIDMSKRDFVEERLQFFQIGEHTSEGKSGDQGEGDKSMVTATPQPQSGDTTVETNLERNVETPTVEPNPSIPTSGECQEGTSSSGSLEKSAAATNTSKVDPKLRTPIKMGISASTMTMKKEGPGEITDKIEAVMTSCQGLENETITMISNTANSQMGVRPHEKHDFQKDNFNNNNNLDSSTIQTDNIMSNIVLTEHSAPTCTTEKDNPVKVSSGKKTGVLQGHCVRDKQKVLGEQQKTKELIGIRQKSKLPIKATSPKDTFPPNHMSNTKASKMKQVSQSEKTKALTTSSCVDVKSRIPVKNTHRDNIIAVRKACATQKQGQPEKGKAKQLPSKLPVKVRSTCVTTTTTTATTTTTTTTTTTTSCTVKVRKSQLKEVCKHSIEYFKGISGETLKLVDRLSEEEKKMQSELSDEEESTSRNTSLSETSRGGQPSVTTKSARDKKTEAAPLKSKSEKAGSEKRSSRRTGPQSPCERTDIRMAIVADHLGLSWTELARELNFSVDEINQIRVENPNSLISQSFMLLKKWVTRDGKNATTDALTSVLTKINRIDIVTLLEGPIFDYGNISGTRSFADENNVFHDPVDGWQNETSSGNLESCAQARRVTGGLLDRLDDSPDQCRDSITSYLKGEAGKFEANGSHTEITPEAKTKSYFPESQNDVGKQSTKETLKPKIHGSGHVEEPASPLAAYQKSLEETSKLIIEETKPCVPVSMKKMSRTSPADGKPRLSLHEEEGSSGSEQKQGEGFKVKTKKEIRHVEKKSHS

binding result [1] | binding result [2] | Binder
no binding | – | ankG in mouse brain homogenate (other, UniProt G5E8K5 1-1961, looked up, also called ankG (arcAbeta, non-transgenic and APP deficient mouse brains)) MSEEPKEKPAKPAHRKRKGKKSDANASYLRAARAGHLEKALDYIKNGVDVNICNQNGLNALHLASKEGHVEVVSELLQREANVDAATKKGNTALHIASLAGQAEVVKVLVTNGANVNAQSQNGFTPLYMAAQENHLEVVRFLLDNGASQSLATEDGFTPLAVALQQGHDQVVSLLLENDTKGKVRLPALHIAARKDDTKAAALLLQNDTNADVESKSGFTPLHIAAHYGNINVATLLLNRAAAVDFTARNDITPLHVASKRGNANMVKLLLDRGAKIDAKTRDGLTPLHCGARSGHEQVVEMLLDRSAPILSKTKNGLSPLHMATQGDHLNCVQLLLQHNVPVDDVTNDYLTALHVAAHCGHYKVAKVLLDKKASPNAKALNGFTPLHIACKKNRIRVMELLLKHGASIQAVTESGLTPIHVAAFMGHVNIVSQLMHHGASPNTTNVRGETALHMAARSGQAEVVRYLVQDGAQVEAKAKDDQTPLHISARLGKADIVQQLLQQGASPNAATTSGYTPLHLAAREGHEDVAAFLLDHGASLSITTKKGFTPLHVAAKYGKLEVASLLLQKSASPDAAGKSGLTPLHVAAHYDNQKVALLLLDQGASPHAAAKNGYTPLHIAAKKNQMDIATSLLEYGADANAVTRQGIASVHLAAQEGHVDMVSLLLSRNANVNLSNKSGLTPLHLAAQEDRVNVAEVLVNQGAHVDAQTKMGYTPLHVGCHYGNIKIVNFLLQHSAKVNAKTKNGYTALHQAAQQGHTHIINVLLQNNASPNELTVNGNTALAIARRLGYISVVDTLKVVTEEIMTTTTITEKHKMNVPETMNEVLDMSDDEVRKASAPEKLSDGEYISDGEEGDKCTWFKIPKVQEVLVKSEDAITGDTDKYLGPQDLKELGDDSLPAEGYVGFSLGARSASLRSFSSDRSYTLNRSSYARDSMMIEELLVPSKEQHLTFTREFDSDSLRHYSWAADTLDNVNLVSSPVHSGFLVSFMVDARGGSMRGSRHHGMRIIIPPRKCTAPTRITCRLVKRHKLANPPPMVEGEGLASRLVEMGPAGAQFLGPVIVEIPHFGSMRGKERELIVLRSENGETWKEHQFDSKNEDLAELLNGMDEELDSPEELGTKRICRIITKDFPQYFAVVSRIKQESNQIGPEGGILSSTTVPLVQASFPEGALTKRIRVGLQAQPVPEETVKKILGNKATFSPIVTVEPRRRKFHKPITMTIPVPPPSGEGVSNGYKGDATPNLRLLCSITGGTSPAQWEDITGTTPLTFIKDCVSFTTNVSARFWLADCHQVLETVGLASQLYRELICVPYMAKFVVFAKTNDPVESSLRCFCMTDDRVDKTLEQQENFEEVARSKDIEVLEGKPIYVDCYGNLAPLTKGGQQLVFNFYSFKENRLPFSIKIRDTSQEPCGRLSFLKEPKTTKGLPQTAVCNLNITLPAHKKAEKADRRQSFASLALRKRYSYLTEPSMSPQSPCERTDIRMAIVADHLGLSWTELARELNFSVDEINQIRVENPNSLISQSFMLLKKWVTRDGKNATTDALTSVLTKINRIDIVTLLEGPIFDYGNISGTRSFADENNVFHDPVDGHPSFQVELETPMGLYCTPPNPFQQDDHFSDISSIESPFRTPSRLSDGLVPSQGNIEHPTGGPPVVTAEDTSLEDSKMDDSVTVTDPADPLDVDESQLKDLCQSECAQCWASVPGIPNDGRQAEPLRPQTRKVGMSSEQQEKGKSGPDEEVTEDKVKSLFEDIQLEEVEAEEMTEDQGQAMLNRVQRAELAMSSLAGWQNETPSGSLESPAQARRLTGGLLDRLDDSSDQARDSITSYLTGEPGKIEANGNHTAEVIPEAKAKPYFPESQNDIGKQSIKENLKPKTHGCGRTEEPVSPLTAYQKSLEETSKLVIEDAPKPCVPVGMKKMTRTTADGKARLNLQEEEGSTRSEPKQGEGYKVKTKKEIRNVEKKTH
– | no binding | Caspr in human AD hippocampus homogenate (other, UniProt P78357 20-1384, looked up) WGYYGCDEELVGPLYARSLGASSYYSLLTAPRFARLHGISGWSPRIGDPNPWLQIDLMKKHRIRAVATQGSFNSWDWVTRYMLLYGDRVDSWTPFYQRGHNSTFFGNVNESAVVRHDLHFHFTARYIRIVPLAWNPRGKIGLRLGLYGCPYKADILYFDGDDAISYRFPRGVSRSLWDVFAFSFKTEEKDGLLLHAEGAQGDYVTLELEGAHLLLHMSLGSSPIQPRPGHTTVSAGGVLNDQHWHYVRVDRFGRDVNFTLDGYVQRFILNGDFERLNLDTEMFIGGLVGAARKNLAYRHNFRGCIENVIFNRVNIADLAVRRHSRITFEGKVAFRCLDPVPHPINFGGPHNFVQVPGFPRRGRLAVSFRFRTWDLTGLLLFSRLGDGLGHVELTLSEGQVNVSIAQSGRKKLQFAAGYRLNDGFWHEVNFVAQENHAVISIDDVEGAEVRVSYPLLIRTGTSYFFGGCPKPASRWDCHSNQTAFHGCMELLKVDGQLVNLTLVEGRRLGFYAEVLFDTCGITDRCSPNMCEHDGRCYQSWDDFICYCELTGYKGETCHTPLYKESCEAYRLSGKTSGNFTIDPDGSGPLKPFVVYCDIRENRAWTVVRHDRLWTTRVTGSSMERPFLGAIQYWNASWEEVSALANASQHCEQWIEFSCYNSRLLNTAGGYPYSFWIGRNEEQHFYWGGSQPGIQRCACGLDRSCVDPALYCNCDADQPQWRTDKGLLTFVDHLPVTQVVIGDTNRSTSEAQFFLRPLRCYGDRNSWNTISFHTGAALRFPPIRANHSLDVSFYFRTSAPSGVFLENMGGPYCQWRRPYVRVELNTSRDVVFAFDVGNGDENLTVHSDDFEFNDDEWHLVRAEINVKQARLRVDHRPWVLRPMPLQTYIWMEYDQPLYVGSAELKRRPFVGCLRAMRLNGVTLNLEGRANASEGTSPNCTGHCAHPRLPCFHGGRCVERYSYYTCDCDLTAFDGPYCNHDIGGFFEPGTWMRYNLQSALRSAAREFSHMLSRPVPGYEPGYIPGYDTPGYVPGYHGPGYRLPDYPRPGRPVPGYRGPVYNVTGEEVSFSFSTSSAPAVLLYVSSFVRDYMAVLIKDDGTLQLRYQLGTSPYVYQLTTRPVTDGQPHSINITRVYRNLFIQVDYFPLTEQKFSLLVDSQLDSPKALYLGRVMETGVIDPEIQRYNTPGFSGCLSGVRFNNVAPLKTHFRTPRPMTAELAEALRVQGELSESNCGAMPRLVSEVPPELDPWYLPPDFPYYHDEGWVAILLGFLVAFLLLGLVGMLVLFYLQNHRYKGSYHTNEPKAAHEYHPGSKPPLPTSGPAQVPTPTAAPNQAPASAPAPAPTPAPAPGPRDQNLPQILEESRSE
